Assay results as given in patent US20260242478A1 (published 2026).
Where no end group is shown, it is not given here.

Experiments:
[1] = target: T1, anti-CD28 scFv (VH - linker 1 - VL) (biotinylated (site not given)); experiment: phage ELISA as above; wells pre-incubated with soluble CD28 as competitor;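 note: crude clonal phage supernatants tested, with bound phage detected by HRP-conjugated anti-M13 antibody, and reference wells given blocking buffer without CD28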
T1 construct: Biotinylated scFv captured on neutravidin coated plates in the panning ELISA
T1 sequence (scFv, as listed by the source): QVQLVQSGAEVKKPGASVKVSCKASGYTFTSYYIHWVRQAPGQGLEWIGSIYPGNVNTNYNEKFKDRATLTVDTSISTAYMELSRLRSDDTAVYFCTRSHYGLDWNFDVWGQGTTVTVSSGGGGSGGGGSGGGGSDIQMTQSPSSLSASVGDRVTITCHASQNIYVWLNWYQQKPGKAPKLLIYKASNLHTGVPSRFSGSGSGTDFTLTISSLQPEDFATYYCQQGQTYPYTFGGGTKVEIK

[2] = target: T1, anti-CD28 scFv (VH - linker 1 - VL); experiment: phage ELISA; biotinylated anti-CD28 scFv on neutravidin plate, clonal phage supernatant, anti-M13 HRP
Description: Clonal phage were harvested as crude supernatants and screened via standard enzyme linked immunosorbent assays (ELISAs). […] Prior to the addition of clonal phage, wells were incubated with blocking buffer and CD28 soluble protein or blocking buffer alone. Without washing or aspirating, clonal phage supernatants were then added to the wells and incubated for a short time. Wells were then washed followed by detection of bound phage using a horse radish peroxidase conjugated anti-M13 antibody.

[3] = target: T2, Anti-CD28 Fab (SEQ ID NOs: 696, 697); experiment: phage binding ELISA; Fab coated wells pre-incubated with CD28 antigen as competitor, anti-M13 HRP detection
T2 construct: Biotinylated and captured on neutravidin coated plates in the phage ELISA
T2 sequence (VH, as listed by the source, chain 1 of 2): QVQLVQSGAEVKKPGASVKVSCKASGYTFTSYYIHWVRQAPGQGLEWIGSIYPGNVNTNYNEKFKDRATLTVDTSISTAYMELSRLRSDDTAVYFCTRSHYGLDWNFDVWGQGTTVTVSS
T2 sequence (VL, as listed by the source, chain 2 of 2): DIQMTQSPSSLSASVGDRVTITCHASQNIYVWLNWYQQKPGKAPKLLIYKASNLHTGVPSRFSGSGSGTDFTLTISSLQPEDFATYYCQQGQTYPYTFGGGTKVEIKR
Description: (§1) Clonal phage were harvested as crude supematants and screened via standard ELISAs. […] Prior to the addition of clonal phage, wells were incubated with blocking buffer and CD28 antigen or blocking buffer alone. Without washing or aspirating, clonal phage supematants were then added to the wells and incubated for a short time. Wells were then washed followed by detection of bound phage using a horse radish conjugated anti-M13 antibody.

[4] = target: T2, Anti-CD28 Fab (SEQ ID NOs: 696, 697); experiment: phage binding ELISA; biotinylated anti-CD28 Fab on neutravidin plate, clonal phage supernatant, anti-M13 HRP detection;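 note: wells pretreated with blocking buffer, either plus or minus CD28 antigen, then given crude phage supernatant briefly without washing in between, then washed before anti-M13 HRP readout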
Description: as §1

[5] = target: T3, Anti-PSMA Fab (SEQ ID NOs: 19, 20); experiment: phage ELISA; PSMA Fab on plate pre-incubated with PSMA antigen as competitor, anti-M13-HRP detection;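 note: clonal phage from crude supernatants added without washing to wells preblocked with or without PSMA antigen, washed, bound phage read out by ELISA with HRP-linked anti-M13 antibody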
T3 construct: Biotinylated and captured on neutravidin coated plates in the phage ELISA; also called 006 PSMA Fab
Description: (§2) Clonal phage were harvested as crude supernatants and screened via standard ELISAs. […] Prior to the addition of clonal phage. wells were incubated with blocking buffer and PSMA antigen or blocking buffer alone. Without washing or aspirating, clonal phage supernatants were then added to the wells and incubated for a short time. Wells were then washed followed by detection of bound phage using a horse radish conjugated anti-M13 antibody.

[6] = target: T3, Anti-PSMA Fab (SEQ ID NOs: 19, 20); experiment: phage ELISA; biotinylated PSMA Fab on neutravidin plate, clonal phage supernatant, anti-M13-HRP detection;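 note: wells were preincubated with blocking buffer containing PSMA antigen or with blocking buffer only, then phage supernatant was added without washing for a brief incubation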
Description: as §2

Row | Binder | Anti-CD28 Fab signal in the presence of CD28 [3] | Anti-CD28 Fab (SEQ ID NOs: 696, 697) signal [4] | Phage binding ELISA, Anti-PSMA Fab signal in the presence of PSMA [5] | Phage binding ELISA, Anti-PSMA Fab signal [6] | also measured
1 | MDWCPRDLWYACFA (cysteine pairing not given here; also: phage-displayed pIII fusion, pIII and linker not given here) [Phage-116] |  |  |  |  | CD28 scFv signal in presence of CD28 [1]: 0.242; CD28 scFv signal [2]: 2.47
2 | TCAAGAAWPWPQCL [Phage-1337] | 0.08 | 2.23 |  |  | 
3 | PPILCIPQWMCSPT (cysteine pairing not given here; also: displayed as fusion to phage pIII) [Phage-1981] |  |  | 0.0785 | 1.88 | 
4 | LCAAGATYPWPLCL [Phage-1341] | 0.07 | 2.39 |  |  | 
5 | LCAAGATYPWPTCL [Phage-1344] | 0.06 | 1.71 |  |  | 
6 | TCAAGATWSWPACF [Phage-1339] | 0.07 | 2.23 |  |  | 
7 | YCAGHTEEHYVKCM [Phage-475] | 0.07 | 0.62 |  |  | 
8 | TCSAGATWPWPICL [Phage-1334] | 0.07 | 2 |  |  | 
9 | TCAAGAAWGWPLCF [Phage-1340] | 0.07 | 2.3 |  |  | 
10 | MDWCPRYLWFECFA (cysteine pairing not given here; also: phage-displayed pIII fusion, pIII and linker not given here) [Phage-114] |  |  |  |  | CD28 scFv signal in presence of CD28 [1]: 0.21; CD28 scFv signal [2]: 2.5
11 | LCAAGASWPWPVCL [Phage-1335] | 0.08 | 2.16 |  |  | 
12 | TCSAGATYTWPKCF [Phage-1338] | 0.06 | 1.87 |  |  | 
13 | LDNWCRPLWMCTGF (tested as crude phage supernatant) [Phage-1988] |  |  | 0.0836 | 1.87 | 
14 | YCMGHSHEHIWKCL [Phage-476] | 0.07 | 0.87 |  |  | 
15 | YCAGMSTIQLWLKC [Phage-473] | 0.09 | 2.16 |  |  | 
16 | LVKWCTPSWMCINL (tested as crude phage supernatant) [Phage-1991] |  |  | 0.0883 | 1.87 | 
17 | VGMLCKPSWMCDWL (tested as crude phage supernatant) [Phage-1982] |  |  | 0.0813 | 1.88 | 
18 | TCSAGASYPWPLCL [Phage-1336] | 0.06 | 2.38 |  |  | 

Row | Binder | Anti-CD28 Fab signal in the presence of CD28 [3] | Anti-CD28 Fab (SEQ ID NOs: 696, 697) signal [4] | Phage binding ELISA, Anti-PSMA Fab signal in the presence of PSMA [5] | Phage binding ELISA, Anti-PSMA Fab signal [6] | also measured
19 | TCSAGAAYPWPLCL [Phage-1342] | 0.08 | 2.36 |  |  | 
20 | EVKWCTPPWMCMFD (tested as crude phage supernatant) [Phage-1993] |  |  | 0.073 | 1.86 | 
21 | VEKWCTPPWMCAGW (cysteine pairing not given here; also: displayed as fusion to phage pIII, tested as crude phage supernatant) [Phage-1987] |  |  | 0.0659 | 1.87 | 
22 | MHWCPRALWDVCYN (cysteine pairing not given here; also: phage-displayed pIII fusion, pIII and linker not given here) [Phage-112] |  |  |  |  | CD28 scFv signal in presence of CD28 [1]: 0.24; CD28 scFv signal [2]: 2.53
23 | MDWCPKNLWHVCFN (cysteine pairing not given here; also: phage-displayed pIII fusion, pIII and linker not given here) [Phage-109] |  |  |  |  | CD28 scFv signal in presence of CD28 [1]: 0.248; CD28 scFv signal [2]: 2.53
24 | LMKWCIPEWMCVDS (tested as crude phage supernatant) [Phage-1990] |  |  | 0.0631 | 1.87 | 
25 | YCAGHMPQYEVKCL [Phage-474] | 0.06 | 0.22 |  |  | 
26 | PVKWCIPDWMCAYL (cysteine pairing not given here; also: displayed as fusion to phage pIII, tested as crude phage supernatant) [Phage-1992] |  |  | 0.115 | 1.86 | 
27 | MDWCPRDLWNVCFF (cysteine pairing not given here; also: phage-displayed pIII fusion, pIII and linker not given here) [Phage-113] |  |  |  |  | CD28 scFv signal in presence of CD28 [1]: 0.137; CD28 scFv signal [2]: 2.52
28 | TCSAGAAYSWPACF [Phage-1343] | 0.15 | 1.89 |  |  | 
29 | YEKWCTPPWMCEML (tested as crude phage supernatant) [Phage-1986] |  |  | 0.0833 | 1.88 | 
30 | MDWCPFYLWNECFY (cysteine pairing not given here; also: phage-displayed pIII fusion, pIII and linker not given here) [Phage-111] |  |  |  |  | CD28 scFv signal in presence of CD28 [1]: 0.594; CD28 scFv signal [2]: 2.53
31 | IFEWCVPAWMCESR (tested as crude phage supernatant) [Phage-1983] |  |  | 0.104 | 1.88 | 
32 | LENWCIPRWMCHGF (tested as crude phage supernatant) [Phage-1985] |  |  | 0.152 | 1.88 | 
33 | YCAGHSHEYLAKCE (also called YCAGHSHEYLAKCE) [Phage-477] | 0.06 | 0.86 |  |  | 
34 | VVKMCRPAWMCDLV (tested as crude phage supernatant) [Phage-1984] |  |  | 0.0833 | 1.88 | 
35 | FDKWCIPTWMCELV (tested as crude phage supernatant) [Phage-1994] |  |  | 0.145 | 1.86 | 
36 | EPKLCTPTWMCIGF (tested as crude phage supernatant) [Phage-1989] |  |  | 0.118 | 1.87 | 
